Assay results published in patent US20030113320A1 (BURNHAM INSTITUTE, published 2003).
Where no end group is shown, it is not given here.

B1: CNGRC cyclic peptide (SEQ ID NO:8) (peptide)
peptide: CNGRC
modifications: also: cyclized (cyclic peptide), ring type not given here
notes: also called NGR cyclic peptide; soluble CNGRC peptide
B2: CARAC peptide (SEQ ID NO:221) (peptide)
peptide: CARAC
notes: also called negative control CARAC; control peptide

Columns and labels:
[1] = molecular target: T1, CD13/aminopeptidase N on CD13-transfected cells (Molt-4/CD13, MDA-MB-435/CD13) (Homo sapiens (Human), UniProt P15144 2-967); assay: competition with CNGRC phage on CD13-transfected cells; peptide at 250 and 500 ug/ml
T1 construct: The parental lines express no endogenous CD13; The transfected construct is not described; also called CD13/APN
T1 sequence (P15144 2-967 R86Q limits assumed): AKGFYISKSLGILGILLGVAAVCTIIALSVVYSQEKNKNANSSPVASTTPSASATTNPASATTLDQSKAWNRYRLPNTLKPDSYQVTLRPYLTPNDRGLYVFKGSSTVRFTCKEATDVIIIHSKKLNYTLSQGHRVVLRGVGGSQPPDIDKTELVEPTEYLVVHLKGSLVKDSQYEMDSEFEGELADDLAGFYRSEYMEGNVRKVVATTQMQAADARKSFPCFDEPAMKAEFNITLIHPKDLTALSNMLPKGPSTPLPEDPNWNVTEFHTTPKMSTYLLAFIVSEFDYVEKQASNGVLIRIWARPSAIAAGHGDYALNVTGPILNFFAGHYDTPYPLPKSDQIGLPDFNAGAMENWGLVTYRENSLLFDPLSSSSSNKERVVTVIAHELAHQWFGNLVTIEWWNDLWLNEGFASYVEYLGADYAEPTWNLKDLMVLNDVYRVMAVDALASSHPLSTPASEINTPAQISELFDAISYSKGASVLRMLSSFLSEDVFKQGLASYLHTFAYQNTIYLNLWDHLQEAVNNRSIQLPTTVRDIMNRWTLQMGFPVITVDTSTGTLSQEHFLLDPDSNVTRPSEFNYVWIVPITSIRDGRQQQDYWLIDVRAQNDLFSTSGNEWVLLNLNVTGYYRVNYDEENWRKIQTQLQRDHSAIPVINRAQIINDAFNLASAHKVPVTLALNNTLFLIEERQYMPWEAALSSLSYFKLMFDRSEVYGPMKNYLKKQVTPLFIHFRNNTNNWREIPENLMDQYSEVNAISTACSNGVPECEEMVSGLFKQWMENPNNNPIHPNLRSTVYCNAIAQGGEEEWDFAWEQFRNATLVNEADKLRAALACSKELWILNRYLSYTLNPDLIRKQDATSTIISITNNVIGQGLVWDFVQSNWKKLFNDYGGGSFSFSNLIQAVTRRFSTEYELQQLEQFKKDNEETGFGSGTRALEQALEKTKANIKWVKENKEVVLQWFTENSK
Description: The CNGRC phage binds specifically to cells transfected with CD13. […] Briefly, mock transfected Molt-4 cells (“Molt-4/mock”) and cells transfected with CD13 (“Molt-4/CD13”) were incubated with CNGRC (SEQ ID NO:8) phage or with control Fd phage lacking an insert (2× 10^9 transducing units (TU) per sample). […] After extensive washing, bound phage were quantitated by infection of bacteria as described above.

[2] = molecular target: T2, CD13/aminopeptidase N (CD13/APN), isolated from octylglucoside cell extracts (Homo sapiens (Human), UniProt P15144 2-967); assay: affinity chromatography of Molt-4/CD13, MDA-MB-435/CD13 or HL-60 cell extracts on CNGRC-SEPHAROSE
T2 construct: The source cell lines are human; also called NGR receptor; immuno-isolated CD13
T2 sequence (P15144 2-967 R86Q limits assumed): as above
Description: (§1) To further characterize the interaction of CD13/APN with the NGR peptide, affinity chromatography on the CNGRC peptide was performed. The column was prepared by coupling the CNGRC peptide to SEPHAROSE (Pharmacia; Piscataway N.J.). Elution was effected with soluble CNGRC peptide. Experiments were performed using HL-60 cell extracts because they are known to express CD13/APN without other proteases that could interfere in the APN assay (Xu et al., supra (1997)). Thus, in HL-60 cell extracts, all detectable cell surface enzymatic activity is inhibitable by anti-CD13 blocking antibodies, assuring specificity. Extracts of Molt-4 and MDA-MB-435 cells transfected with CD13/APN were also characterized by using affinity chromatography, with extracts of the mock transfected counterparts used as negative controls.
(§2) Briefly, CD13 was detected by testing aliquots of each fraction for the presence of CD13 immunoreactivity in ELISA with the anti-CD13 monoclonal antibody WM15, using normal mouse IgG as a negative control. The fractions were also analyzed for CD13 enzymatic activity using AlapNA as the substrate. […] Furthermore, no CD13 activity was recovered from the CNGRC column when the extract fractionated was derived from CD13-negative cells (see FIG. 6).

[3] = molecular target: T2, CD13/aminopeptidase N (CD13/APN), …; assay: peptide affinity chromatography of cell extracts
Description: as §1, §2

Row | Binder | binding result [1] | binding result [2] | binding result [3]
1 | B1 | binds | binds | –
2 | B2 | – | – | no binding
